Reference: the supplement of paper PMC7877785
± gives the uncertainty stated by the source.

Assay: self-splicing fitness, log relative to wild type (ln ratio); higher = more splicing; Tetrahymena group I intron in knt gene, E. coli kanamycin selection, DiMSum; sequences stand for … in CUCUCU…GGAGGGAAAAGUUAUCAGGCAUGCACCUGGUAGCUAGUCUUUAAACCAAUAGAUUGCAUCGGUUUAAAAGGCAAGACCGUCAAAUUGCGGGAAAGGGGUCAACAGCCGUUCAGUACCAAGUCUCAGGGGAAACUUUGAGAUGGCCUUGCAAAGGGUAUGGUAAUAAGCUGACGGACAUGGUCCUAACCACGCAGCCAAGUCCUAAGUCAACAGAUCUUCUGUUGAUAUGGAUGCAGUUCACAGACUAAAUGUCGGUCGGGGAAGAUGUAUUCUUCUCAUAAGAUAUAGUCGGACCUCUCCUUAAUGGGAGCUAGCGGAUGAAGUGAUGCAACACUGGAGCCGCUGGGAACUAAUUUGUAUGCGAAAGUAUAUUGAUUAGUUUUGGAGUACUCGUGGUCG
How it was run: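 Library with all eight P1ex-region intron nucleotides randomised, intron inside the knt kanamycin-resistance gene on pET-22b(+), in E. coli BL21(DE3). Cells grew overnight at 37°C or 30°C on LB agar with or without 25 μg/mL kanamycin (plus 100 μg/mL carbenicillin, 50 μM IPTG, 0.2% rhamnose), in six replicate transformations. Pooled colonies were amplicon-sequenced on Illumina HiSeq 2500. DiMSum fitness is the error-weighted combination of wild-type-normalised replicate fold changes, kanamycin versus none.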

Sequence | self-splicing fitness (ln) (30 °C) | self-splicing fitness (ln) (37 °C)
GACAAGCAAUAUUACGGCAG | -4.14 ± 0.31 | -3.08 ± 0.35
GACAAGCAAUAUUACGGCAU | -0.363 ± 0.067 | 0.227 ± 0.088
GACAAGCAAUAUUACGGCUC | -0.105 ± 0.07 | 0.0794 ± 0.1
GACAAGCAAUAUUACGGGAU | -2.65 ± 0.14 | -0.632 ± 0.12
GACAAGCAAUAUUACGGGCA | -0.702 ± 0.049 | -0.0944 ± 0.056
GACAAGCAAUAUUACGGGCG | -1.27 ± 0.061 | -0.455 ± 0.072
GACAAGCAAUAUUACGUCUU | -2.08 ± 0.082 | -1.05 ± 0.085
GACAAGCAAUAUUACGUGUC | -4.44 ± 0.28 | -3.22 ± 0.37
GACAAGCAAUAUUACGUUCG | -2.99 ± 0.19 | -1.61 ± 0.12
GACCAGCAAUAUUACGACUG | -2.86 ± 0.15 | -2.12 ± 0.17
GACCAGCAAUAUUACGACUU | 0.432 ± 0.065 | 0.163 ± 0.076
GACCAGCAAUAUUACGAUUA | -0.607 ± 0.056 | -0.446 ± 0.072
GACCAGCAAUAUUACGCAAC | -1.35 ± 0.082 | -0.681 ± 0.1
GACCAGCAAUAUUACGCCGU | -0.962 ± 0.075 | -0.0427 ± 0.08
GACCAGCAAUAUUACGCGUG | -0.273 ± 0.041 | 0.216 ± 0.059
GACCAGCAAUAUUACGCUGG | -3.16 ± 0.13 | -2.95 ± 0.21
GACCAGCAAUAUUACGCUUG | -0.638 ± 0.089 | -0.56 ± 0.11
GACCAGCAAUAUUACGGACU | -1.55 ± 0.082 | -0.595 ± 0.1
GACCAGCAAUAUUACGGAGA | -1.25 ± 0.078 | -0.461 ± 0.088
GACCAGCAAUAUUACGGAGC | -0.563 ± 0.077 | -0.0895 ± 0.11
GACCAGCAAUAUUACGGAUG | -0.62 ± 0.056 | 0.157 ± 0.077
GACCAGCAAUAUUACGGCUA | 0.142 ± 0.055 | 0.0036 ± 0.068

Sequence | self-splicing fitness (ln) (30 °C) | self-splicing fitness (ln) (37 °C)
GACCAGCAAUAUUACGGCUG | -3.68 ± 0.18 | -3.41 ± 0.25
GACCAGCAAUAUUACGGGUC | -4.01 ± 0.21 | -3.33 ± 0.22
GACCAGCAAUAUUACGUAAA | 0.0993 ± 0.067 | -0.108 ± 0.094
GACCAGCAAUAUUACGUCGC | -1.89 ± 0.1 | -0.411 ± 0.13
GACCAGCAAUAUUACGUGGG | -3.64 ± 0.12 | -2.47 ± 0.12
GACCAGCAAUAUUACGUUCC | -2.31 ± 0.26 | -1.76 ± 0.28
GACCAGCAAUAUUACGUUUG | -2.55 ± 0.073 | -1.42 ± 0.081
GACGAGCAAUAUUACGAAAU | -2.5 ± 0.23 | –
GACGAGCAAUAUUACGAAUC | – | -2.14 ± 0.4
GACGAGCAAUAUUACGAGAU | -2.23 ± 0.3 | –
GACGAGCAAUAUUACGAGCC | -2.73 ± 0.33 | –
GACGAGCAAUAUUACGAUGU | -3.94 ± 0.26 | -1.38 ± 0.14
GACGAGCAAUAUUACGCCCU | -2.99 ± 0.25 | -1.47 ± 0.19
GACGAGCAAUAUUACGCGUU | -3.74 ± 0.23 | -2.88 ± 0.25
GACGAGCAAUAUUACGCUUA | -2.29 ± 0.15 | -1.13 ± 0.14
GACGAGCAAUAUUACGGGAA | -3.41 ± 0.31 | -2.34 ± 0.19
GACGAGCAAUAUUACGGGUC | -3.77 ± 0.21 | -3.28 ± 0.25
GACGAGCAAUAUUACGUAGA | -2.81 ± 0.26 | -1.98 ± 0.22
GACGAGCAAUAUUACGUAGU | -2.9 ± 0.26 | -1.88 ± 0.3
GACGAGCAAUAUUACGUCAG | – | -1.66 ± 0.23
GACGAGCAAUAUUACGUCGU | -3.59 ± 0.24 | -2.34 ± 0.23
